From patent publication US20250092426, “CAS ENDONUCLEASES AND RELATED METHODS” (Flagship Pioneering Innovations VII, LLC, published 2025)

Molecular target: T1, CasEnd-10 (synthetic construct)
T1 chain: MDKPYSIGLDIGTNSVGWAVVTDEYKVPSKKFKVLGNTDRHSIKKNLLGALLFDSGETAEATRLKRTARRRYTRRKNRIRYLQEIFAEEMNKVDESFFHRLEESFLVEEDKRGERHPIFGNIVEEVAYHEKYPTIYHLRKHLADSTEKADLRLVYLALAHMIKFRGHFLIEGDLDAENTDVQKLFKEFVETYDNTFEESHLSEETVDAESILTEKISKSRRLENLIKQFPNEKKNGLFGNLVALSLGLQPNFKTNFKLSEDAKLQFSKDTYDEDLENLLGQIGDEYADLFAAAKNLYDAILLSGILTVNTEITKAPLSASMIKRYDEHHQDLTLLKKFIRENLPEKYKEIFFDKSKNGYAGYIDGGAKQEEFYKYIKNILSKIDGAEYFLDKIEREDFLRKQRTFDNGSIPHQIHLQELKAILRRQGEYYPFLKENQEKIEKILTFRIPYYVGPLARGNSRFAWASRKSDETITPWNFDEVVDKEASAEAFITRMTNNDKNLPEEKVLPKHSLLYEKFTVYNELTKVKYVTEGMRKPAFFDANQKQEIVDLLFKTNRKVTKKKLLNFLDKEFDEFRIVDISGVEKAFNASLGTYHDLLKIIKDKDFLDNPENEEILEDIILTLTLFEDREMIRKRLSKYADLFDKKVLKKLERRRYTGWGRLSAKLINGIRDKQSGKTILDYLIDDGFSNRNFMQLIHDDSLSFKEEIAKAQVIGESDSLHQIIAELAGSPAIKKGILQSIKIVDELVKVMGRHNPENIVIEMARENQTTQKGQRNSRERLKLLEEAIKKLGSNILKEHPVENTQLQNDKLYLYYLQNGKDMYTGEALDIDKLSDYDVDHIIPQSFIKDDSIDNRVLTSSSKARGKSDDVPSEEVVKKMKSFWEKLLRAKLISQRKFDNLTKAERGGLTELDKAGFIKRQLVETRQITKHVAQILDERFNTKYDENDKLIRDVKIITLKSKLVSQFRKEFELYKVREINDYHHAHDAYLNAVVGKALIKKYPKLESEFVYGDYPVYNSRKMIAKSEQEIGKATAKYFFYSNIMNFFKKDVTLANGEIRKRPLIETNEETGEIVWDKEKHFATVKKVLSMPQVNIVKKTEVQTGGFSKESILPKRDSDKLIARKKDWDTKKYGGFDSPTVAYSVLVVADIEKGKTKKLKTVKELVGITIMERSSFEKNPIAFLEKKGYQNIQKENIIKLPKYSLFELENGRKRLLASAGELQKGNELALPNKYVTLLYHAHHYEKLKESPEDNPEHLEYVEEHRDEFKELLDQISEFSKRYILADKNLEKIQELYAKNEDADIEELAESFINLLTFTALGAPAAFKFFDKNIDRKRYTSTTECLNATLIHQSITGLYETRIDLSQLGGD
Assay: cell_activity; +++; K562, second nick guide SEQ 380; PAM not stated
How it was run: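 K562 cells (250,000) nucleofected with plasmids for the reverse transcriptase–Cas endonuclease fusion, template RNA introducing an SNP at endogenous HBB, and second nick guide RNA (250 ng each). Genomic DNA harvested at day 3; percent amplicons with intended edit measured by targeted amplicon sequencing.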

B1: HBB template RNA ; HBB protospacer (ssRNA ; dsDNA)
RNA: CAUGGUGCACCUGACUCCUGGUUUUAGAGCUAGAAAUAGCAAGUUAAAAUAAGGCUAGUCCGUUAUCAACUUGAAAAAGUGGCACCGAGUCGGUGCACGGCAGACUUCUCUGCCGGAGUCAGGUGC
DNA 1: CATGGTGCACCTGACTCCTG
DNA 2: CAGGAGTCAGGTGCACCATG
activity: ≥ 100 % of reference
